Test system: M.HhaI DNA methyltransferase (Haemophilus parahaemolyticus)
Assay: cleavage_in_vitro
Conditions: up to 20% of compartmentalised genes protected from HhaI after 60-180 min; HaeIII and EcoRI sites not protected; SAM 80 uM, 25-30 C

DIG-M.HhaI-Biotin 1167 bp fragment showed an activity of 20%.

From patent publication US6489103
